Test results: patent publication US20100093033

What was measured:
[1] = molecular target: Lactose repressor LacI (Escherichia coli) (UniProt P03023); conditions: CITED general LacO affinity, method not stated; printed as <10-12 M; cited from earlier work
[2] = molecular target: E47-LacI fusion (Escherichia coli LacI; E47 organism not stated) (UniProt P03023); test: cell_activity; conditions: sIgM loss; almost reversed by 100 uM IPTG
[3] = molecular target: HIRA-LacI fusion (Escherichia coli LacI; HIRA organism not stated) (UniProt P03023); test: cell_activity; conditions: sIgM loss; untethered HIRA 1.7-fold
[4] = molecular target: LacI-HP1 fusion (Escherichia coli LacI; Drosophila melanogaster HP1a) (UniProt P03023); test: cell_activity; conditions: sIgM loss; chromatin effects largely reversed by 250 uM IPTG
[5] = system: E2A (Gallus gallus); conditions: ChIP with anti-E2A vs IgG, normalized to ovalbumin

In the case of “PolyLacO at Igλ (about 80-100 repeats of 20 bp lac operator, 3.8 kb)”, the Kd [1] is given as < 1 pM, the activity (fold diversification vs GFP-LacI) [2] is given as 4.5 and the activity (fold diversification vs GFP-LacI) [3] is given as 11. It also gave an activity (fold diversification vs GFP-LacI) [4] of 5.6.

For rearranged VλR allele, DT40, the binding signal (fold enrichment) [5] was 17.6.
